In US6159704, “Phosphatase modulator” (Novartis AG, dated 2000):

B1: full length human PR55α fused to the GAL4 DNA binding domain (other)
chain: MAGAGGGNDIQWCFSQVKGAVDDDVAEADIISTVEFNHSGELLATGDKGGRVVIFQQEQENKIQSHSRGEYNVYSTFQSHEPEFDYLKSLEIEEKINKIRWLPQKNAAQFLLSTNDKTIKLWKISERDKRPEGYNLKEEDGRYRDPTTVTTLRVPVFRPMDLMVEASPRRIFANAHTYHINSISINSDYETYLSADDLRINLWHLEITDRSFNIVDIKPANMEELTEVITAAEFHPNSCNTFVYSSSKGTIRLCDMRASALCDRHSKLFEEPEDPSNRSFFSEIISSISDVKFSHSGRYMMTRDYLSVKIWDLNMENRPVETYQVHEYLRSKLCSLYENDCIFDKFECCWNGSDSVVMTGSYNNFFRMFDRNTKRDITLEASRENNKPRTVLKPRKVCASGKRKKDEISVDSLDFNKKILHTAWHPKENIIAVATTNNLYIFQDKVN
B3: PP2Ac^100-309 fused to the GAL4 DNA binding domain (enzyme)
chain: LVALKVRYRERITILRGNHESRQITQVYGFYDECLRKYGNANVWKYFTDLFDYLPLTALVDGQIFCLHGGLSPSIDTLDHIRALDRLQEVPHEGPMCDLLWSDPDDRGGWGISPRGAGYTFGQDISETFNHANGLTLVSRAHQLVMEGYNWCHDRNVVTIFSAPNYCYRCGNQAAIMELDDTLKYSFLQFDPAPRRGEPHVTRRTPDYFL
B4: PP2Ac^150-309 fused to the GAL4 DNA binding domain (enzyme)
chain: FDYLPLTALVDGQIFCLHGGLSPSIDTLDHIRALDRLQEVPHEGPMCDLLWSDPDDRGGWGISPRGAGYTFGQDISETFNHANGLTLVSRAHQLVMEGYNWCHDRNVVTIFSAPNYCYRCGNQAAIMELDDTLKYSFLQFDPAPRRGEPHVTRRTPDYFL

Key:
[1] = target: full length human eRF1 fused to the GAL4 transactivation domain (yeast; human, UniProt P62495); test: yeast two-hybrid: His growth (HF7c) and colony colour in filter β-Gal assay (SFY526)
Excerpt: PCR products encoding three N-terminal (PP2Ac^50-309, PP2Ac^100-309 and PP2Ac^150-309) and three C-terminal (PP2Ac^1-259, PP2Ac^1-209 and PP2Ac^1-159) truncations of PP2Acα are subcloned into pGBT9 in-frame with the GAL4 DNA binding domain. Control plasmids encoding wild-type GAL4 protein (pCL1), SV40 large T antigen (pTD1), p53 (pVA3) and lamin C (pLAM5'), the latter three fused to the appropriate domains of GAL4, are provided by the manufacturer and used for control interactions. Expression constructs are transformed into *S. cerevisiae* host strains SFY526 (lacZ reporter gene) and HF7c (lacZ and HIS3 reporter genes). […] The expression of the lacZreporter gene is determined by measuring β-galactosidase activity using 5-bromo-4-chloro-3-indolyl-β-D-galactoside [X-Gal] and O-nitrophenyl-β-D-galactoside [ONPG] as substrates, whereas the expression of HIS3 reporter gene is assessed by monitoring growth on triple selective SD medium lacking leucine, tryptophan and histidine. All media and reagents are prepared according to the manufacturer's recommendations. Transcriptional activation of reporter genes driven by wild-type GAL4 protein or brought about by the interaction between SV40 largeT and p53 are used as positive controls. To exclude intrinsic transcriptional activation capacity or non-specific binding of either molecules to unrelated proteins, cotransformations with the empty vector or vector encoding human lamin C fused to the opposite domain of GAL4 are used as negative controls.

[2] = target: B1; test: yeast two-hybrid, empty vector control: His growth (HF7c) and filter β-Gal colour (SFY526)
[3] = target: full length human PR65α fused to the GAL4 DNA binding domain (yeast; human); test: as above
[4] = target: PP2Ac^1-209 fused to the GAL4 DNA binding domain (yeast; human, UniProt P04386); test: as above
[5] = target: full length human PP2Acα fused to the GAL4 DNA binding domain (yeast; human); test: as above
[6] = target: PP2Ac^1-259 fused to the GAL4 DNA binding domain (yeast; human, UniProt P04386); test: as above
[7] = target: B3; test: as above
[8] = target: PP2Ac^50-309 fused to the GAL4 DNA binding domain (yeast; human, UniProt P04386); test: as above
[9] = target: PP2Ac^1-159 fused to the GAL4 DNA binding domain (yeast; human, UniProt P04386); test: as above
[10] = target: B4; test: as above

Measured: binding result

B1
no binding: [1]

B2: GAL4 transactivation domain alone (empty vector pGAD424) (other)
chain: ANFNQSGNIADSSLSFTFTNSSNGPNLITTQTNSQALSQPIASSNVHDNFMNNEITASKIDDGNNSKPLSPGWTDQTAYNAFGITTGMFNTTTMDDVYNYLFDDEDTPPNPKKE
no binding: [2] | [3] | [4] | [5] | [6] | [7] | [8] | [9] | [10]

B3
no binding: [1]

B4
no binding: [1]
